Measured values from patent publication US20240261333A1 (published 2024).

How the values were obtained:
Assay in all cases: co-IP, anti-FLAG, lysate of cells with N-FLAG B3GNT2; mass spectrometry
EIF5B = target: T1, EIF5B (human, UniProt O60841 1-1220)
T1 construct: also called NP_056988.3
T1 sequence (looked up): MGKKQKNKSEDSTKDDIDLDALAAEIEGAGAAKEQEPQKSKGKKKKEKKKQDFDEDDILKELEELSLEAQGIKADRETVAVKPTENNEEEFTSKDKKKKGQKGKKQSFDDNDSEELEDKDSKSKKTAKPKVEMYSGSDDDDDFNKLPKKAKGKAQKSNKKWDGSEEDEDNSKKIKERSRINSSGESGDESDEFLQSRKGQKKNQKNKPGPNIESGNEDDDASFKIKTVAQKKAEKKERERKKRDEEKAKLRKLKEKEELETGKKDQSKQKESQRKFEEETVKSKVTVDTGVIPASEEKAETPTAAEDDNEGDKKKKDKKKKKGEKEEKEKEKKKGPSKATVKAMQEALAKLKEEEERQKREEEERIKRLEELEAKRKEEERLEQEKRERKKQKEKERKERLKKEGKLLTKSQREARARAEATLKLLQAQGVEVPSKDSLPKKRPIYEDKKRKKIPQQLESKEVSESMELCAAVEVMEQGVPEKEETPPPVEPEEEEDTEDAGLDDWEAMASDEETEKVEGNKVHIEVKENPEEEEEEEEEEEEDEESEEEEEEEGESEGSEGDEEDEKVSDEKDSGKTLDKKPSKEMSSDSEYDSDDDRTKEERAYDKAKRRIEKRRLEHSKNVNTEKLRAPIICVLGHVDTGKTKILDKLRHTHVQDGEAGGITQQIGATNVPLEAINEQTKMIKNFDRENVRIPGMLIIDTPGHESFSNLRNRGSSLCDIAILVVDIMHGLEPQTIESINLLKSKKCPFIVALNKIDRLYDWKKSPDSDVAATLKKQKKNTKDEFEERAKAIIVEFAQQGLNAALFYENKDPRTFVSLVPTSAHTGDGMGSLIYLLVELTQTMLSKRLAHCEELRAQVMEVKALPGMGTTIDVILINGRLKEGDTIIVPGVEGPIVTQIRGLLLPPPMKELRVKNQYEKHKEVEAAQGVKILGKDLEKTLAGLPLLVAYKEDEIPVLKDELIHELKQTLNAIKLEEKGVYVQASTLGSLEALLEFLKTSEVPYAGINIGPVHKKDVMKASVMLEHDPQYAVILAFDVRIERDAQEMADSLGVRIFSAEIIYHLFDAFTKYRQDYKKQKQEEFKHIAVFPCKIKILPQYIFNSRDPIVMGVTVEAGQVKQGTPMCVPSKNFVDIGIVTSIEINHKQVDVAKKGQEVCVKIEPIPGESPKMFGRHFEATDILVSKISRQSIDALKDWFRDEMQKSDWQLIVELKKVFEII
Method: (§1) Cells were plated in 10-cm cell culture dishes and grown to 60-80% confluency. For each condition, two biological replicates were harvested for co-IP. Cells were washed with PBS and 4 mL of lysis buffer (20 mM HEPES, 1% Triton X-100, 150 mM NaCl, 1 mM EDTA, and 10% glycerol) containing protease inhibitor cocktail was added. Cells were scraped and lysate was incubated at 4° C. under rotary agitation for 1 h. Lysate was centrifuged at 14,000×g for 10 min at 4° C. Supernatant was transferred to a new tube and an aliquot was taken as the input. […] For Western blots, 10 μg/mL Chicken Anti-FLAG (Aves labs ET-DY100) and IgY control (R&D Systems AB-101-C) antibodies were biotinylated (Thermo Fisher Scientific 90407) and added to the respective conditions. Lysates with antibodies were incubated at 4° C. under rotary agitation overnight. For each mL of lysate, 50 μL of Pierce Protein A/G Magnetic Beads (Mass spectrometry; Thermo Fisher Scientific 88803) or Pierce Streptavidin Magnetic Beads (Western blot; Thermo Fisher Scientific 88817) was washed twice with lysis buffer. Lysates with antibodies were added to the beads and incubated at 4° C. under rotary agitation for 4 h. Beads were washed with lysis buffer 3 times and resuspended in lysis buffer for storage.
(§2) Magnetic beads were resuspended in 100 mM Tris pH 7.8, reduced, alkylated and digested with trypsin at 37° ° C. overnight. This solution was subjected to solid phase extraction to concentrate the peptides and remove unwanted reagents followed by injection onto a Shimadzu HPLC with fraction collector. Eight fractions were collected and after concentration were injected on a Waters NanoAcquity HPLC equipped with a self-packed Aeris 3 μm C18 analytical column 0.075 mm by 20 cm, (Phenomenex). Peptides were eluted using standard reverse-phase gradients. The effluent from the column was analyzed using a Thermo Orbitrap Elite mass spectrometer (nanospray configuration) operated in a data dependent manner for 54 minutes. The resulting fragmentation spectra were correlated against the known database using Proteome Discover 1.4 (Thermo Fisher Scientific).

PRBP1 = target: T2, PRBP1 (human, UniProt P26599 1-557)
T2 construct: Label 'PRBP1' is probably a misprint of PTBP1; also called NP_002810.1 (+4)
Method: as §1, §2

RPS3 = RPS3 (human, UniProt P23396 2-243)
Method: as §1, §2

KRT6B = target: T3, KRT6B (human, UniProt P04259 2-564)
T3 construct: also called NP_00546.2
T3 sequence (looked up): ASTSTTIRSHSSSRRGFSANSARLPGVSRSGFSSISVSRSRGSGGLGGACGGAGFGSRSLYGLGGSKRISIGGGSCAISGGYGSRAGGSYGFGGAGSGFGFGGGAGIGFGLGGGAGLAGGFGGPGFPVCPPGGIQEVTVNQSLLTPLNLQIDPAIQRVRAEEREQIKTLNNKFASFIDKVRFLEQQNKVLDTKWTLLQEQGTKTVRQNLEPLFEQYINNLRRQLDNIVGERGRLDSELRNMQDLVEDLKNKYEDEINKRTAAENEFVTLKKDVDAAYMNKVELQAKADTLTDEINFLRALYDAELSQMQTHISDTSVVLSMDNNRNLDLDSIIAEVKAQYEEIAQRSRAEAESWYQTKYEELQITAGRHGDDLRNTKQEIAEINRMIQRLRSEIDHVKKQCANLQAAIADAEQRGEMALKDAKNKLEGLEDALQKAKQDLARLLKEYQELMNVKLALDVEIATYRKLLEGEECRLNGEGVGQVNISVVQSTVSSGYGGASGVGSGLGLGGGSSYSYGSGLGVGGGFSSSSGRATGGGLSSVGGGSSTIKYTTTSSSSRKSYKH
Method: as §1, §2

DDX5 = target: T4, DDX5 (human, UniProt P17844 1-614)
T4 construct: also called NP_001307526.1
Method: as §1, §2

T2 sequence (P26599 whole entry): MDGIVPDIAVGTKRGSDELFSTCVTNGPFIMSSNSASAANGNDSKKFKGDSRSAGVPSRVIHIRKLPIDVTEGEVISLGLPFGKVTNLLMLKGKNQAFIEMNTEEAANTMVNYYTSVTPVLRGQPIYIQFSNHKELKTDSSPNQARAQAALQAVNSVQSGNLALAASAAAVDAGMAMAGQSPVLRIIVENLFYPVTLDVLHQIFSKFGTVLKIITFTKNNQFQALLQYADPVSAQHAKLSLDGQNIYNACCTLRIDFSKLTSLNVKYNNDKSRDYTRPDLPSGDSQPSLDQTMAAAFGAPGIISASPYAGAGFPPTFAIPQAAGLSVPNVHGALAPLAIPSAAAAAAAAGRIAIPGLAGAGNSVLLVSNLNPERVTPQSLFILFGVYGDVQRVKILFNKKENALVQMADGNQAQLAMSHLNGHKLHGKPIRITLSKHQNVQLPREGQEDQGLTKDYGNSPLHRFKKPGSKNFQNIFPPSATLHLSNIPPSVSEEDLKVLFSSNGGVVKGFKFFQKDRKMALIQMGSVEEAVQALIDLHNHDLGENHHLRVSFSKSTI
T4 sequence (P17844 whole entry): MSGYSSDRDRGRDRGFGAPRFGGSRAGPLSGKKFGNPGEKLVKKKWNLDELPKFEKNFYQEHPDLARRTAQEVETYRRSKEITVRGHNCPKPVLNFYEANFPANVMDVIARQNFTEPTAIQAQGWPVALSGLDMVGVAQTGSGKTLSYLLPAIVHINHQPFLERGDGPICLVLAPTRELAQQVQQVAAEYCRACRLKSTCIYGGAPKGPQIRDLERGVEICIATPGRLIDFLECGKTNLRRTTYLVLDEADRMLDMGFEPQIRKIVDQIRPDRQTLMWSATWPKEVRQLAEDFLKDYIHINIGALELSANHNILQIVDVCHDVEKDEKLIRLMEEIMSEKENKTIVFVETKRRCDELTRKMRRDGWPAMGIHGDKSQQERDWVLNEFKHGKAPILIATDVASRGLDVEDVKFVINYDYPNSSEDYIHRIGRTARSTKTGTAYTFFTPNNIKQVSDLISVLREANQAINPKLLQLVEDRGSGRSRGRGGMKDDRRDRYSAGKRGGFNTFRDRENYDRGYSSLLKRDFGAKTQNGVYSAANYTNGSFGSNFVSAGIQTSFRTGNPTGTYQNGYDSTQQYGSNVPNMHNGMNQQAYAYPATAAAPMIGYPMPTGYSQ

B1: N-terminal FLAG tagged B3GNT2 (enzyme, human, UniProt Q9NY97 1-397, looked up)
chain: MSVGRRRIKLLGILMMANVFIYFIMEVSKSSSQEKNGKGEVIIPKEKFWKISTPPEAYWNREQEKLNRQYNPILSMLTNQTGEAGRLSNISHLNYCEPDLRVTSVVTGFNNLPDRFKDFLLYLRCRNYSLLIDQPDKCAKKPFLLLAIKSLTPHFARRQAIRESWGQESNAGNQTVVRVFLLGQTPPEDNHPDLSDMLKFESEKHQDILMWNYRDTFFNLSLKEVLFLRWVSTSCPDTEFVFKGDDDVFVNTHHILNYLNSLSKTKAKDLFIGDVIHNAGPHRDKKLKYYIPEVVYSGLYPPYAGGGGFLYSGHLALRLYHITDQVHLYPIDDVYTGMCLQKLGLVPEKHKGFRTFDIEEKNKNNICSYVDLMLVHSRKPQEMIDIWSQLQSAHLKC
notes: Overexpressed in cells and pulled down from the lysate with mouse anti-FLAG antibody; also called N-FLAG B3GNT2; N-term FLAG; not shown: N-terminal FLAG tag
co-IP mass spectrometry count (EIF5B): 0 | co-IP mass spectrometry count (PRBP1): 6 | co-IP mass spectrometry count (RPS3): 10 | co-IP mass spectrometry count (KRT6B): 370 | co-IP mass spectrometry count (DDX5): 16
